The values below come from patent US20230287120A1 (ALLOGENE THERAPEUTICS, published 2023).

T1: human DLL3 extracellular domain (ECD) with C-terminal 8xHis tag and Avi tag (human, UniProt Q9NYJ7 27-492)
T1 construct: extracellular domain; Expressed in Expi293, purified by IMAC and SEC; also called huDLL3; not shown: Avi tag
T1 sequence: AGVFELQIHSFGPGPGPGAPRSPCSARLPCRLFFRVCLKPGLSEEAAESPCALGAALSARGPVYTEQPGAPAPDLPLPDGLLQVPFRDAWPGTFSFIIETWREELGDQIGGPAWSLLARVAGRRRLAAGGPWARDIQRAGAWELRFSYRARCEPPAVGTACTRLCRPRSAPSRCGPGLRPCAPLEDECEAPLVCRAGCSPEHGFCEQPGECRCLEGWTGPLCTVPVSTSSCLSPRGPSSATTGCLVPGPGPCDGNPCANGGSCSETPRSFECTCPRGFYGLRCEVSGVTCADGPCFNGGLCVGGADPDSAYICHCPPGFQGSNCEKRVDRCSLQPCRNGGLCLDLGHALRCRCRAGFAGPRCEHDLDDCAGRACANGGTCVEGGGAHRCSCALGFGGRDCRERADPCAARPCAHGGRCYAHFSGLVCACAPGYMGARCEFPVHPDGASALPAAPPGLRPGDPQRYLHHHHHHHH

T2: mouse DLL3 extracellular domain (ECD) with C-terminal 8xHis tag and Avi tag (mouse, UniProt O88516 33-490)
T2 construct: extracellular domain; Expressed in Expi293, purified by IMAC and SEC; also called msDLL3; not shown: Avi tag
T2 sequence: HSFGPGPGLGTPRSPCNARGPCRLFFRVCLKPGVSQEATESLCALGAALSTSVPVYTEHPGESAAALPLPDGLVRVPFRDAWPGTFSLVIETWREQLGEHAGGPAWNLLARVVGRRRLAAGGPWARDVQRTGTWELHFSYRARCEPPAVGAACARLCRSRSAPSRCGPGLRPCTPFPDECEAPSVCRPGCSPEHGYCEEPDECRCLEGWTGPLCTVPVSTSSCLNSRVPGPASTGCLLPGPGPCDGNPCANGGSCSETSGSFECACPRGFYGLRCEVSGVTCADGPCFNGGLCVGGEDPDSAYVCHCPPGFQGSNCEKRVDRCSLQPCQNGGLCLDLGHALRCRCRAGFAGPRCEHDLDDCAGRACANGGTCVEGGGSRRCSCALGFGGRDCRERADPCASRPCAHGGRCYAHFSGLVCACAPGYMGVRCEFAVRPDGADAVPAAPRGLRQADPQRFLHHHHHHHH

T3: cynomolgus monkey DLL3 extracellular domain (ECD) with C-terminal 8xHis tag and Avi tag (cynomolgus monkey, UniProt A0A2K5WSR1 27-490)
T3 construct: extracellular domain; Expressed in Expi293, purified by IMAC and SEC; also called cynoDLL3; cyno DLL3; not shown: Avi tag
T3 sequence: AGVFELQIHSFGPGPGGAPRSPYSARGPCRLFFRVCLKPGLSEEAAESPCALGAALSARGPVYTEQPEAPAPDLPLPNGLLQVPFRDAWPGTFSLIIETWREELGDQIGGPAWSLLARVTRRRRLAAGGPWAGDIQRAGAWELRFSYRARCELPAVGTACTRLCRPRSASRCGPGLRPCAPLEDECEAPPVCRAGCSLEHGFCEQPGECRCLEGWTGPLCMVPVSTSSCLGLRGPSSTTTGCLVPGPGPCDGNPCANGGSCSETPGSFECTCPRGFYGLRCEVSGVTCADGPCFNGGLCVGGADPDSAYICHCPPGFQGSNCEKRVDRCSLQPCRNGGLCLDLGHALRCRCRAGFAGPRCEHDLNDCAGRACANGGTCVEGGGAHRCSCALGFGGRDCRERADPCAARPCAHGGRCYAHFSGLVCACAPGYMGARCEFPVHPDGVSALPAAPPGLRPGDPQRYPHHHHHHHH

B1: anti-DLL3 antibody 3F2 (IgG) (antibody, V domains shown)
VH: QVQLQESGPGLVKPSGTLSLTCAVSGGSISSNNWWSWVRQPPGKGLEWIGDIHHSGSTNYKPSLKSRVTISVDKSKNQFSLNLISVTAADTAVYYCAREAGGYFDYWGQGILVTVSS
VL: DIQMTQSPSTLSASVGDRVTITCRASQSISSWLAWYQQKPGKAPKLLISKASSLESGVPSRFSGSGSGPEFTLTISSLQPADFATYYCQQYNSYSTFGQGTKLEIK
notes: Full-length monoclonal antibody (IgG)
B2: anti-DLL3 antibody 4H8 (IgG) (antibody, V domains shown)
VH: QVQLQQSGPGLVKPSQTLSLTCAISGDSVSSNSATWNWIRQSPSRGLEWLGRTYYRSKWYDDYAVSVKSRITINPDTSKNHLSLHLNSVTPEDTAVYYCAGGGLVGAPDGFDVWGQGTMVTVSS
VL: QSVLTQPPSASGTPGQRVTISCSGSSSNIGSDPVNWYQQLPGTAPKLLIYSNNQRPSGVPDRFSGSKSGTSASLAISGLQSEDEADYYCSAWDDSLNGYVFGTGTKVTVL
notes: as for B1
B3: anti-DLL3 antibody 2G1 (IgG) (antibody, V domains shown)
VH: QLQLQESGPGLVKPSETLSLTCTVSGGSISSSSYYWGWIRQPPGKGLEWIGSIYYSGNIYHNPSLKSRVSISVDTSKNQFSLRLSSVTAADTAVYYCAREIIVGATHFDYWGQGTLVTVSS
VL: AIQMTQSPSSLSASVGDRVTITCRASQGIRNDLGWYQQKPGKAPELLIYAASSLQSGVPSRFSGSGSGTDFTLTISSLQPEDFATYYCLQDYNYPLTFGPGTKVDIK
notes: as for B1
B4: anti-DLL3 antibody 2A6.C5 (IgG) (antibody, V domains shown)
VH: QVQLQESGPGLVKPSETLSLTCTVSNVSISSYYWSWIRQPPGKGLEWIGYIYYSGTTNYNPSLKSRVTMSVDTSKNQFSLKLSSVTAADTAVYFCARLSNWGFAFDIWGQGTMVTFSS
VL: EIVLTQSPGTLSLSPGERATLSCRASQTISSSYLAWYQQKPGQAPRLLIYGASSRATGIPDRFSGSGSGTEFTLTISRLEPEDFAVYYCQQYGWSPITFGQGTRLEIK
notes: as for B1
B5: anti-DLL3 antibody 17A2 (IgG) (antibody, V domains shown)
VH: QVQLQESGPGLVKPSGTLSLTCVVFGDSISSSNWWSWVRQPPGKGLEWIGEVFHSGSTNYNPSLKSRVTISVDKSKNQFSLKLSSVTAADTAVYYCARAAVAGALDYWGQGTLVTVSS
VL: not shown
notes: as for B1
B6: anti-DLL3 antibody 6F8 (IgG) (antibody, V domains shown)
VH: QVQLVQSGAEVKKPGSSVKVSCKASGGTFTNYCISWVRQAPGQGLEWMGGIIPIFGTTNYAQTFQGRVTITADKSTSTAYMELSSLRSEDTAVYYCARDNGDRYYYDMDVWGQGTTVTVSS
VL: QSVLTQPPSVSAAPGQKVTISCSGSSSNIGNNYVSWYQQLPGTAPKLLIYDNNKRPSGIPDRFSGSKSGTSATLGITGLQTGDEADYYCGTWDSSLSAVVFGGGTKLTVL
B7: anti-DLL3 antibody 11A3 (IgG) (antibody, V domains shown)
VH: QVQLQESGPGLVKPSETLSLTCTVSSDSISNYYWSWIRQPPGKGLEWISYIYYSGITNYNPSLKSRVTISVDTSKNQFSLKLSSVTAADTAVYYCARITVTGFYFDYWGQGTLVTVSS
VL: EIVLTQSPGTLSLSPGERATLSCRASQSISRSYLAWYQQKPGQAPRHLIYGASSRATGIPDRFSGSGSGTDFILTISRLEPEDFAVYYCQQYDTSPLTFGGGTKVEIK
notes: as for B1
B8: 6F8 scFv-Fc fusion (Fc fusion, not shown: a dimerising Fc or GST)
scFv: QVQLVQSGAEVKKPGSSVKVSCKASGGTFTNYCISWVRQAPGQGLEWMGGIIPIFGTTNYAQTFQGRVTITADKSTSTAYMELSSLRSEDTAVYYCARDNGDRYYYDMDVWGQGTTVTVSSGGGGSGGGGSGGGGSGGGGSQSVLTQPPSVSAAPGQKVTISCSGSSSNIGNNYVSWYQQLPGTAPKLLIYDNNKRPSGIPDRFSGSKSGTSATLGITGLQTGDEADYYCGTWDSSLSAVVFGGGTKLTVL
notes: scFv-Fc expressed in Expi293
B9: 6D8 scFv-Fc fusion (Fc fusion, not shown: a dimerising Fc or GST)
scFv: QITLKESGPTLVKPTQTLTLTCTFSGFSLSTRGVGVGWIRQPPGKALEWLALIYWNDDKRYSPSLQTRLTITKDTPKNQVVLTMTNMDPVDTATYYCARSNWGNWYFALWGRGTLVTVSSGGGGSGGGGSGGGGSGGGGSEIVLTQSPATLSLSPGERATLSCRASQSVSSYLAWYQQKPGQAPRLLIYDAFYRATGIPARFSGSGSGTDFTLTISSLEPEDFAVYYCQHRSNWPITFGQGTRLEIK
notes: scFv-Fc expressed in Expi293
B10: 2A6.C5 scFv-Fc fusion (Fc fusion, not shown: a dimerising Fc or GST)
scFv: QVQLQESGPGLVKPSETLSLTCTVSNVSISSYYWSWIRQPPGKGLEWIGYIYYSGTTNYNPSLKSRVTMSVDTSKNQFSLKLSSVTAADTAVYFCARLSNWGFAFDIWGQGTMVTFSSGGGGSGGGGSGGGGSGGGGSEIVLTQSPGTLSLSPGERATLSCRASQTISSSYLAWYQQKPGQAPRLLIYGASSRATGIPDRFSGSGSGTEFTLTISRLEPEDFAVYYCQQYGWSPITFGQGTRLEIK
notes: scFv-Fc expressed in Expi293
B11: 3F2 scFv-Fc fusion (Fc fusion, not shown: a dimerising Fc or GST)
scFv: QVQLQESGPGLVKPSGTLSLTCAVSGGSISSNNWWSWVRQPPGKGLEWIGDIHHSGSTNYKPSLKSRVTISVDKSKNQFSLNLISVTAADTAVYYCAREAGGYFDYWGQGILVTVSSGGGGSGGGGSGGGGSGGGGSDIQMTQSPSTLSASVGDRVTITCRASQSISSWLAWYQQKPGKAPKLLISKASSLESGVPSRFSGSGSGPEFTLTISSLQPADFATYYCQQYNSYSTFGQGTKLEIK
notes: scFv-Fc expressed in Expi293
B12: 17A2 scFv-Fc fusion (Fc fusion, not shown: a dimerising Fc or GST)
scFv: QVQLQESGPGLVKPSGTLSLTCVVFGDSISSSNWWSWVRQPPGKGLEWIGEVFHSGSTNYNPSLKSRVTISVDKSKNQFSLKLSSVTAADTAVYYCARAAVAGALDYWGQGTLVTVSSGGGGSGGGGSGGGGSGGGGSDIVMTQSPDSLAVSLGERATINCKSSQSVLYSSNNKNYLAWYQQKPGQPPNLLVYWASTRESGVPDRFSGAGSGTDFTLTISSLQAEDVAVYYCQQYYGTSWTFGQGTKVEIK
notes: scFv-Fc expressed in Expi293
B13: 7F9 scFv-Fc fusion (Fc fusion, not shown: a dimerising Fc or GST)
scFv: EVQLVESGGGLVQPGGSLRLSCAASGFTFSSHDMHWVRQATGKGLEWVSAIGIAGDTYYSGSVKGRFTISRENAKNSLYLQMNSLRAGDTAVYYCARANWGEGAFDIWGQGTMVTVSSGGGGSGGGGSGGGGSGGGGSDIQMTQSPSSLSASVGDRVTITCRASQGISDYLAWYQQKPGKIPKLLIYAASTLQSGVPSRFSGSGSGTDFTLTISSLQPEDVATYYCQKYNSVPLTFGGGTKVEIK
notes: scFv-Fc expressed in Expi293
B14: 9H12-K scFv-Fc fusion (Fc fusion, not shown: a dimerising Fc or GST)
scFv: QVQLVQSGAEVKKPGASVKVSCKASGYTFTGYSIHWVRQAPGQGLEWMGWINPNSGGTFYAQKFQGRVTMTRDTSISTVYMELSRLRSDDTAVYYCARDGWGDYYYYGLDVWGQGTTVTVSLGGGGSGGGGSGGGGSGGGGSDIQMTQSPSSVSASVGDRVTITCRASQDISSWLAWYQQKPGKAPKLLIYTASSLQGGVPSRFSGSGSGTDFTLTISSLQPEDLATYSCQQANVFPYTFGQGTKLEIK
notes: scFv-Fc expressed in Expi293

The target of the first experiment is T1, human DLL3 extracellular domain (ECD) …. The experiment in a line: SPR (Biacore), 37 C; IgG captured on chip, human DLL3 ECD in solution; 1:1 Langmuir fit. For orientation: SPR reads the build-up and loss of mass on a sensor chip optically.
For orientation: Kd means the free concentration of one partner at which half of the binding sites on the other are occupied at equilibrium, for simple one-to-one binding. With B1, the Kd was determined as 14.8 nM.
On to B2, for which binding was put at a Kd of 18.5 nM.
As for B3, the Kd came out at 38.1 nM.
On to B4, for which the equilibrium dissociation constant (Kd) worked out at 23.4 nM.
B5 showed a Kd of 5.49 nM.
B6: the Kd turned out to be 26.5 nM.
Regarding B7, binding was put at a Kd of 4.8 nM.

Another experiment deals with T2, mouse DLL3 extracellular domain (ECD) …. The experiment in a line: SPR (Biacore), 37 C; scFv-Fc captured on chip, mouse DLL3 ECD in solution; 1:1 Langmuir fit.
Description: (§1) The antibody binding kinetics were determined by surface plasmon resonance (Biacore™ surface plasmon resonance (SPR) system, GE Healthcare Bio-Sciences, Pittsburgh Pa.). The antibodies diluted in HBS-T+ running buffer (0.01 M HEPES pH 7.4, 0.15 M NaCl, 0.05% v/v Tween20, 1 mg/mL BSA) were captured on a CM4 chip immobilized with an antibody specific for the anti-DLL3 antibody constant domains. Purified DLL3 was serially diluted into HBS-T+, injected for 2 min at 30 uL/min and a dissociation time of 10 min then the surface regenerated with either 10 mM Glycine-HCl pH 1.7 or phosphoric acid between injections. […] Equilibrium dissociation constant (Kd) values are calculated as koff/kₒₙ.
B8 had a Kd of 19.3 nM.
The molecule B9 yielded a Kd of less than 1.5 nM.
Consider B10, for which the Kd was 42.1 nM.

A further experiment addresses T3, cynomolgus monkey DLL3 extracellular …. The experiment in a line: SPR (Biacore), 37 C; scFv-Fc captured on chip, cyno DLL3 ECD in solution; 1:1 Langmuir fit.
Description: as §1
Molecule B11 returned an equilibrium dissociation constant (Kd) of 6.81 nM.
As for B10, binding was put at a Kd of 46.8 nM.
On to B12, for which the Kd is less than 0.97 nM.

The target in the next experiment is T1, human DLL3 extracellular domain (ECD) …. The experiment in a line: SPR (Biacore), 37 C; scFv-Fc captured on chip, human DLL3 ECD in solution; 1:1 Langmuir fit.
Description: as §1
Turning to B11, the Kd came out at 8.18 nM.
In turn, B8 gave a dissociation constant (Kd) of 40.8 nM.
For B9, the Kd is less than 1.2 nM.
Consider B13, for which binding was put at a Kd of 27.3 nM.
Consider B10, for which the Kd was 48.4 nM.
As for B12, the equilibrium dissociation constant (Kd) amounted to 3.82 nM.
The same measure, in the same setting: the figure for B14 is 186 nM.
